Assay results taken from patent publication US20200199241A1 (Chugai, published 2020).

These binders were tested against T1, human FcRn (soluble human FcRn complexed with β2-microglobulin) (human, UniProt P61769 21-119, limits assumed) (assay: SPR, pH 7.0;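 further: antibodies captured on a Protein L sensor chip with human FcRn injected as analyte, KD calculated from fitted association and dissociation rate constants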).
T1 construct: also called hFcRn

Binder | Kd [nM]
IgG1-F250 (antibody, EU numbering; copies: 2 + 2) heavy: QVQLQESGPGLVKPSETLSLTCAVSGHSISHDHAWSWVRQPPGEGLEWIGFISYSGITNYNPSLQGRVTISRDNSKNTLYLQMNSLRAEDTAVYYCARSLARTTAMDYWGEGTLVTVSSASTKGPSVFPLAPSSKSTSGGTAALGCLVKDYFPEPVTVSWNSGALTSGVHTFPAVLQSSGLYSLSSVVTVPSSSLGTQTYICNVNHKPSNTKVDKKVEPKSCDKTHTCPPCPAPELLGGPSVFLFPPKPKDTLYISRTPEVTCVVVDVSHEDPEVKFNWYVDGVEVHNAKTKPREEQYNSTYRVVSVLTVLHQDWLNGKEYKCKVSNKALPAPIEKTISKAKGQPREPQVYTLPPSRDELTKNQVSLTCLVKGFYPSDIAVEWESNGQPENNYKTTPPVLDSDGSFFLYSKLTVDKSRWQQGNVFSCSVTHEALHYHYTQKSLSLSP light: not shown | 290
IgG1-F257 (antibody, EU numbering; copies: 2 + 2) heavy: QVQLQESGPGLVKPSETLSLTCAVSGHSISHDHAWSWVRQPPGEGLEWIGFISYSGITNYNPSLQGRVTISRDNSKNTLYLQMNSLRAEDTAVYYCARSLARTTAMDYWGEGTLVTVSSASTKGPSVFPLAPSSKSTSGGTAALGCLVKDYFPEPVTVSWNSGALTSGVHTFPAVLQSSGLYSLSSVVTVPSSSLGTQTYICNVNHKPSNTKVDKKVEPKSCDKTHTCPPCPAPELLGGPSVFLFPPKPKDTLYISRTPEVTCVVVDVSHEDPEVKFNWYVDGVEVHNAKTKPREEQYNSTYRVVSVLAVLHQDWLNGKEYKCKVSNKALPAPIEKTISKAKGQPREPQVYTLPPSRDELTKNQVSLTCLVKGFYPSDIAVEWESNGQPENNYKTTPPVLDSDGSFFLYSKLTVDKSRWQQGNVFSCSVYHEALHYHYTQKSLSLSP light: not shown | 500
IgG1-F252 (antibody, EU numbering; copies: 2 + 2) heavy: QVQLQESGPGLVKPSETLSLTCAVSGHSISHDHAWSWVRQPPGEGLEWIGFISYSGITNYNPSLQGRVTISRDNSKNTLYLQMNSLRAEDTAVYYCARSLARTTAMDYWGEGTLVTVSSASTKGPSVFPLAPSSKSTSGGTAALGCLVKDYFPEPVTVSWNSGALTSGVHTFPAVLQSSGLYSLSSVVTVPSSSLGTQTYICNVNHKPSNTKVDKKVEPKSCDKTHTCPPCPAPELLGGPSVFLFPPKPKDTLYISRTPEVTCVVVDVSHEDPEVKFNWYVDGVEVHNAKTKPREEQYNSTYRVVSVLTVLHQDWLNGKEYKCKVSNKALPAPIEKTISKAKGQPREPQVYTLPPSRDELTKNQVSLTCLVKGFYPSDIAVEWESNGQPENNYKTTPPVLDSDGSFFLYSKLTVDKSRWQQGNVFSCSVWHEALHYHYTQKSLSLSP light: not shown | 1000
IgG1-F253 (antibody, EU numbering; copies: 2 + 2) heavy: QVQLQESGPGLVKPSETLSLTCAVSGHSISHDHAWSWVRQPPGEGLEWIGFISYSGITNYNPSLQGRVTISRDNSKNTLYLQMNSLRAEDTAVYYCARSLARTTAMDYWGEGTLVTVSSASTKGPSVFPLAPSSKSTSGGTAALGCLVKDYFPEPVTVSWNSGALTSGVHTFPAVLQSSGLYSLSSVVTVPSSSLGTQTYICNVNHKPSNTKVDKKVEPKSCDKTHTCPPCPAPELLGGPSVFLFPPKPKDTLYISRTPEVTCVVVDVSHEDPEVKFNWYVDGVEVHNAKTKPREEQYNSTYRVVSVLTVLHQDWLNGKEYKCKVSNKALPAPIEKTISKAKGQPREPQVYTLPPSRDELTKNQVSLTCLVKGFYPSDIAVEWESNGQPENNYKTTPPVLDSDGSFFLYSKLTVDKSRWQQGNVFSCSVYHEALHYHYTQKSLSLSP light: not shown | 710
IgG1-F258 (antibody, EU numbering; copies: 2 + 2) heavy: QVQLQESGPGLVKPSETLSLTCAVSGHSISHDHAWSWVRQPPGEGLEWIGFISYSGITNYNPSLQGRVTISRDNSKNTLYLQMNSLRAEDTAVYYCARSLARTTAMDYWGEGTLVTVSSASTKGPSVFPLAPSSKSTSGGTAALGCLVKDYFPEPVTVSWNSGALTSGVHTFPAVLQSSGLYSLSSVVTVPSSSLGTQTYICNVNHKPSNTKVDKKVEPKSCDKTHTCPPCPAPELLGGPSVFLFPPKPKDTLYISRTPEVTCVVVDVSHEDPEVKFNWYVDGVEVHNAKTKPREEQYNSTYRVVSVLQVLHQDWLNGKEYKCKVSNKALPAPIEKTISKAKGQPREPQVYTLPPSRDELTKNQVSLTCLVKGFYPSDIAVEWESNGQPENNYKTTPPVLDSDGSFFLYSKLTVDKSRWQQGNVFSCSVYHEALHYHYTQKSLSLSP light: not shown | 320

Stronger by Kd, values ahead:

Kd [nM] | Binder
280 | IgG1-F259 (antibody, EU numbering; copies: 2 + 2) heavy: QVQLQESGPGLVKPSETLSLTCAVSGHSISHDHAWSWVRQPPGEGLEWIGFISYSGITNYNPSLQGRVTISRDNSKNTLYLQMNSLRAEDTAVYYCARSLARTTAMDYWGEGTLVTVSSASTKGPSVFPLAPSSKSTSGGTAALGCLVKDYFPEPVTVSWNSGALTSGVHTFPAVLQSSGLYSLSSVVTVPSSSLGTQTYICNVNHKPSNTKVDKKVEPKSCDKTHTCPPCPAPELLGGPSVFLFPPKPKDTLYISRTPEVTCVVVDVSHEFPEVKFNWYVDGVEVHNAKTKPREEQYNSTYRVVSVLTVLHQDWLNGKEYKCKVSNKALPAPIEKTISKAKGQPREPQVYTLPPSRDELTKNQVSLTCLVKGFYPSDIAVEWESNGQPENNYKTTPPVLDSDGSFFLYSKLTVDKSRWQQGNVFSCSVMHEALHYHYTQKSLSLSP light: not shown
190 | IgG1-F251 (antibody, EU numbering; copies: 2 + 2) heavy: QVQLQESGPGLVKPSETLSLTCAVSGHSISHDHAWSWVRQPPGEGLEWIGFISYSGITNYNPSLQGRVTISRDNSKNTLYLQMNSLRAEDTAVYYCARSLARTTAMDYWGEGTLVTVSSASTKGPSVFPLAPSSKSTSGGTAALGCLVKDYFPEPVTVSWNSGALTSGVHTFPAVLQSSGLYSLSSVVTVPSSSLGTQTYICNVNHKPSNTKVDKKVEPKSCDKTHTCPPCPAPELLGGPSVFLFPPKPKDTLYISRTPEVTCVVVDVSHEDPEVKFNWYVDGVEVHNAKTKPREEQYNSTYRVVSVLTVLHQDWLNGKEYKCKVSNKALPAPIEKTISKAKGQPREPQVYTLPPSRDELTKNQVSLTCLVKGFYPSDIAVEWESNGQPENNYKTTPPVLDSDGSFFLYSKLTVDKSRWQQGNVFSCSVVHEALHYHYTQKSLSLSP light: not shown
190 | IgG1-F262 (antibody, EU numbering; copies: 2 + 2) heavy: QVQLQESGPGLVKPSETLSLTCAVSGHSISHDHAWSWVRQPPGEGLEWIGFISYSGITNYNPSLQGRVTISRDNSKNTLYLQMNSLRAEDTAVYYCARSLARTTAMDYWGEGTLVTVSSASTKGPSVFPLAPSSKSTSGGTAALGCLVKDYFPEPVTVSWNSGALTSGVHTFPAVLQSSGLYSLSSVVTVPSSSLGTQTYICNVNHKPSNTKVDKKVEPKSCDKTHTCPPCPAPELLGGPSVFLFPPKPKDTLYISRTPEVTCVVVDVSHEDPEVKFNWYVDGVEVHNAKTKPREEQYNSTYRVVSVLAVLHHDWLNGKEYKCKVSNKALPAPIEKTISKAKGQPREPQVYTLPPSRDELTKNQVSLTCLVKGFYPSDIAVEWESNGQPENNYKTTPPVLDSDGSFFLYSKLTVDKSRWQQGNVFSCSVMHEALHYHYTQKSLSLSP light: not shown
130 | IgG1-F260 (antibody, EU numbering; copies: 2 + 2) heavy: QVQLQESGPGLVKPSETLSLTCAVSGHSISHDHAWSWVRQPPGEGLEWIGFISYSGITNYNPSLQGRVTISRDNSKNTLYLQMNSLRAEDTAVYYCARSLARTTAMDYWGEGTLVTVSSASTKGPSVFPLAPSSKSTSGGTAALGCLVKDYFPEPVTVSWNSGALTSGVHTFPAVLQSSGLYSLSSVVTVPSSSLGTQTYICNVNHKPSNTKVDKKVEPKSCDKTHTCPPCPAPELLGGPSVFLFPPKPKDTLYISRTPEVTCVVVDVSHEDPEVKFNWYVDGVEVHNAKTKPREEQYNSTYRVVSVLAVLHADWLNGKEYKCKVSNKALPAPIEKTISKAKGQPREPQVYTLPPSRDELTKNQVSLTCLVKGFYPSDIAVEWESNGQPENNYKTTPPVLDSDGSFFLYSKLTVDKSRWQQGNVFSCSVMHEALHYHYTQKSLSLSP light: not shown
110 | IgG1-F255 (antibody, EU numbering; copies: 2 + 2) heavy: QVQLQESGPGLVKPSETLSLTCAVSGHSISHDHAWSWVRQPPGEGLEWIGFISYSGITNYNPSLQGRVTISRDNSKNTLYLQMNSLRAEDTAVYYCARSLARTTAMDYWGEGTLVTVSSASTKGPSVFPLAPSSKSTSGGTAALGCLVKDYFPEPVTVSWNSGALTSGVHTFPAVLQSSGLYSLSSVVTVPSSSLGTQTYICNVNHKPSNTKVDKKVEPKSCDKTHTCPPCPAPELLGGPSVFLFPPKPKDTLWISRTPEVTCVVVDVSHEDPEVKFNWYVDGVEVHNAKTKPREEQYNSTYRVVSVLTVLHADWLNGKEYKCKVSNKALPAPIEKTISKAKGQPREPQVYTLPPSRDELTKNQVSLTCLVKGFYPSDIAVEWESNGQPENNYKTTPPVLDSDGSFFLYSKLTVDKSRWQQGNVFSCSVYHEALHYHYTQKSLSLSP light: not shown
84 | IgG1-F261 (antibody, EU numbering; copies: 2 + 2) heavy: QVQLQESGPGLVKPSETLSLTCAVSGHSISHDHAWSWVRQPPGEGLEWIGFISYSGITNYNPSLQGRVTISRDNSKNTLYLQMNSLRAEDTAVYYCARSLARTTAMDYWGEGTLVTVSSASTKGPSVFPLAPSSKSTSGGTAALGCLVKDYFPEPVTVSWNSGALTSGVHTFPAVLQSSGLYSLSSVVTVPSSSLGTQTYICNVNHKPSNTKVDKKVEPKSCDKTHTCPPCPAPELLGGPSVFLFPPKPKDTLYISRTPEVTCVVVDVSHEDPEVKFNWYVDGVEVHNAKTKPREEQYNSTYRVVSVLQVLHADWLNGKEYKCKVSNKALPAPIEKTISKAKGQPREPQVYTLPPSRDELTKNQVSLTCLVKGFYPSDIAVEWESNGQPENNYKTTPPVLDSDGSFFLYSKLTVDKSRWQQGNVFSCSVMHEALHYHYTQKSLSLSP light: not shown
75 | IgG1-F254 (antibody, EU numbering; copies: 2 + 2) heavy: QVQLQESGPGLVKPSETLSLTCAVSGHSISHDHAWSWVRQPPGEGLEWIGFISYSGITNYNPSLQGRVTISRDNSKNTLYLQMNSLRAEDTAVYYCARSLARTTAMDYWGEGTLVTVSSASTKGPSVFPLAPSSKSTSGGTAALGCLVKDYFPEPVTVSWNSGALTSGVHTFPAVLQSSGLYSLSSVVTVPSSSLGTQTYICNVNHKPSNTKVDKKVEPKSCDKTHTCPPCPAPELLGGPSVFLFPPKPKDTLWISRTPEVTCVVVDVSHEDPEVKFNWYVDGVEVHNAKTKPREEQYNSTYRVVSVLQVLHQDWLNGKEYKCKVSNKALPAPIEKTISKAKGQPREPQVYTLPPSRDELTKNQVSLTCLVKGFYPSDIAVEWESNGQPENNYKTTPPVLDSDGSFFLYSKLTVDKSRWQQGNVFSCSVYHEALHYHYTQKSLSLSP light: not shown
54 | IgG1-F256 (antibody, EU numbering; copies: 2 + 2) heavy: QVQLQESGPGLVKPSETLSLTCAVSGHSISHDHAWSWVRQPPGEGLEWIGFISYSGITNYNPSLQGRVTISRDNSKNTLYLQMNSLRAEDTAVYYCARSLARTTAMDYWGEGTLVTVSSASTKGPSVFPLAPSSKSTSGGTAALGCLVKDYFPEPVTVSWNSGALTSGVHTFPAVLQSSGLYSLSSVVTVPSSSLGTQTYICNVNHKPSNTKVDKKVEPKSCDKTHTCPPCPAPELLGGPSVFLFPPKPKDTLWISRTPEVTCVVVDVSHEDPEVKFNWYVDGVEVHNAKTKPREEQYNSTYRVVSVLQVLHADWLNGKEYKCKVSNKALPAPIEKTISKAKGQPREPQVYTLPPSRDELTKNQVSLTCLVKGFYPSDIAVEWESNGQPENNYKTTPPVLDSDGSFFLYSKLTVDKSRWQQGNVFSCSVYHEALHYHYTQKSLSLSP light: not shown
